Data as given in the Human Domainome abundance scans (Beltran et al. 2025).

B1: Tyrosine-protein kinase Lck, residues 63 to 120; numbered along this chain, P06239 (parent)
chain: DNLVIALHSYEPSHDGDLGFEKGEQLRILEQSGEWWKAQSLTTGQEGFIPFNFVAKAN

Variants of: B1
Assay: abundance fitness (aPCA) (normalised: wild type 0, dead -1); higher = more abundant; growth selection in yeast, the domain comes from the species named
Conditions: Homo sapiens

Abundance fitness, by site and new letter:
S32: A -0.067 | L -0.377 | T 0.05 | R 0.012 | W -0.455 | N 0.101 | K 0.06 | P -0.407 | E 0.182 | Y -0.082 | Q 0.182 | D -0.07 | G -0.071 | I -0.226 | H -0.302
G44: Y -0.467 | W -0.541 | S -0.268 | V -0.819 | M -0.272 | H -0.321 | R -0.22 | Q -0.24 | F -0.394 | I -0.591 | L -0.271 | N -0.193 | E -0.222 | A -0.264 | T -0.557 | C -0.446 | P -1.07
Q45: E 0.001 | I -0.662 | P -0.57 | N -0.288 | C -0.117 | M -0.092 | R -0.015 | H -0.23 | D -0.217 | F -0.303 | S -0.282 | G -0.308 | W -0.599 | A -0.087 | V -0.187 | K -0.101 | L -0.112 | T -0.146
W36: D -0.614 | Y -0.074 | S -0.408 | T -0.029 | G -0.283 | K -0.521 | P -0.298 | I -0.617 | R -0.213 | V -0.1 | L -0.101 | E -0.881 | A 0.032 | C -0.046 | M -0.075 | F -0.181 | H -0.585
G47: M -0.884 | P -0.687 | R -0.687 | H -0.81 | S -0.931 | Q -0.986 | L -0.789 | V -0.807 | T -0.831 | F -0.982 | I -1.02 | D -0.912 | E -0.831 | C -1.07 | W -0.831
E30: V -0.17 | P -0.752 | R -0.285 | A -0.115 | C -0.265 | W -0.503 | F -0.45 | D -0.087 | H -0.247 | Y -0.362 | I -0.586 | L -0.601 | M -0.278 | T -0.293 | K -0.248 | Q -0.161 | G -0.21
Q31: W -0.161 | T -0.291 | D -0.011 | E 0.025 | H -0.301 | L -0.707 | R 0.054 | F -0.5 | C -0.097 | V -0.354 | P -0.235 | Y -0.234 | A 0.032 | I -0.552 | K 0.003
Q39: I -0.327 | W -0.784 | R -0.017 | N -0.868 | D -1.03 | T -0.278 | C -0.386 | Y -0.468 | A -0.361 | M -0.179 | K -0.042 | G -0.722 | P -0.843 | S -0.297 | L -0.312 | F -0.503
K37: S -0.321 | Q -0.406 | C -0.593 | D -1.16 | V -0.232 | A -0.615 | G -0.96 | R -0.046 | M -0.307 | P -0.808 | Y -0.177 | I -0.151 | F -0.229 | T -0.267 | W -0.152 | H -0.388 | E -0.435 | N -0.548
S40: V -0.641 | G -0.795 | A -0.382 | N -0.135 | T -0.484 | P -0.793 | D -0.626 | Y -0.862 | R -0.107 | L -0.538 | I -0.687 | K -0.076 | Q -0.622 | F -0.908 | W -0.989 | M -0.918 | H -0.115 | E -0.789
I28: W -0.941 | K -0.903 | L -0.074 | Q -0.924 | C -0.658 | T -0.683 | G -0.754 | E -0.969 | P -0.885 | R -0.874 | H -1.03 | M -0.662 | V -0.108 | D -0.833 | S -0.645 | N -0.585 | Y -0.459 | F -0.977
L41: Q -0.167 | Y -0.65 | A -0.382 | C -0.068 | R -0.513 | N -0.624 | I -0.058 | M -0.227 | P -0.339 | W -0.933 | D -0.666 | F -0.54 | E -0.153 | K -0.348 | H -0.765 | G -0.721 | S -0.478 | T -0.149
T43: Q -0.549 | F -0.957 | P -0.909 | N -0.277 | D -0.446 | K -0.698 | S -0.101 | R -0.624 | W -1.1 | M -0.766 | H -0.622 | A -0.617 | L -0.831 | G -0.658 | E -0.643 | Y -0.85 | I -0.941 | V -0.854 | C -0.949
L29: M -0.315 | H -0.184 | F -0.527 | T -0.283 | R -0.591 | C -0.441 | I -0.339 | D -0.852 | P -1.05 | S -0.44 | A -0.645 | Q -0.401 | G -0.734 | Y -0.227 | K -0.325 | W -0.87
E34: R 0.006 | N -0.203 | G -0.13 | C -0.276 | W -0.34 | Y -0.026 | P -0.183 | H -0.205 | F -0.138 | A -0.065 | T -0.092 | L -0.225 | S -0.054 | Q -0.149 | V -0.076 | M -0.262 | I -0.142
A38: S -0.795 | W -0.598 | C -0.4 | G -0.483 | E -0.934 | Q -0.891 | K -0.927 | R -1.08 | Y -0.714 | I -0.788 | N -0.445 | F -0.771 | L -0.337 | M -0.656 | D -1.01 | T -0.963 | V -0.104
T42: F -0.305 | N 0.034 | Y -0.129 | L -0.12 | A -0.035 | I -0.049 | S -0.031 | P -0.715 | V -0.001 | R -0.059 | M -0.101 | K 0.042 | G -0.248 | D -0.181 | Q -0.057 | H -0.08 | E -0.015 | W -0.24
E46: C -0.023 | M -0.032 | I 0.131 | V 0.042 | P -0.745 | N -0.217 | Q -0.038 | F -0.294 | A -0.024 | S 0.021 | W -0.517 | R -0.207 | Y -0.316 | H -0.448 | K -0.05 | G -0.632 | L -0.157
W35: H -0.081 | Q 0.069 | A -0.044 | D -0.444 | L -0.029 | C -0.185 | G -0.303 | M 0.01 | R 0.091 | I -0.049 | N -0.128 | Y -0.131 | S 0.002
G33: V -0.881 | K -0.545 | N -0.145 | F -0.853 | Q -0.767 | A -0.398 | S -0.166 | C -0.491 | P -0.544 | L -0.812 | W -0.929 | Y -0.922 | H -0.633 | E -0.491 | D -0.467
